Results taken from doi:10.1101/2022.01.04.474899 (bioRxiv, 2022).

Target: the molecule itself
Assay: SDS-PAGE immunoblot

B1: recombinant human asprosin with C-terminal 2×Strep-tag II (natural protein, UniProt P35555 2732-2871, looked up)
chain: STNETDASNIEDQSETEANVSLASWDVEKTAIFAFNISHVSNKVRILELLPALTTLTNHNRYLIESGNEDGFFKINQKEGISYLHFTKKKPVAGTYSLQISSTPLYKKKELNQLEDKYDKDYLSGELGDNLKMKIQVLLH
stoichiometry N: 4
